The values that follow come from US20090186040A1 (published 2009).

In the assay the target is T1, BLyS (B-lymphocyte stimulator) (UniProt Q9Y275 134-285).
T1 construct: Endogenous BLyS in the serum of human SLE patients; The complex with atacicept was detected by sandwich ELISA
Put plainly: ELISA of atacicept/BLyS complex in serum of dosed SLE patients (subcutaneous, Study 1). On the procedure: Pharmacokinetics were assessed by measuring serum levels of free atacicept (Table 2a), atacicept/BLyS complex (Table 3a), and composite atacicept (defined as free atacicept+atacicept-BLyS complex, Table 4a). Serum levels of each of these were quantified using an enzyme-linked immunosorbant assay. Serum was incubated with a biotin-conjugated mouse mAb specific for atacicept (free or total atacicept detection) (ZymoGenetics, Inc., Seattle, Wash.) or biotin-conjugated goat polyclonal antibodies specific for either BLyS or atacicept (atacicept/BLyS complex detection) (R & D Systems, Minneapolis, Minn.), immobilized on a streptavidin-coated microplate (Adaltis, Montreal, Quebec). […] In all three assays, atacicept serum levels were detected and quantified using standard […] methods, i.e., after washing tetramethylbenzidine (TMB) was added as HRP substrate (Sigma-Aldrich, St. Louis, Mo.). The reaction was halted after 20 minutes using 0.5 M sulfuric acid and the absorbance recorded at 450 nm. […] All samples were measured in triplicate. […] The lower limits of quantification (LLOQ) of the assays were 15.6 ng/mL for free atacicept, 5 U/mL for atacicept-BLyS complex (1 U/mL corresponding to 1.82 ng/mL atacicept-0.44 ng/mL BLyS in a 3:1 molar ratio), and 25 ng/mL for the composite analytes. […]

T1 sequence (Q9Y275 134-285 limits assumed): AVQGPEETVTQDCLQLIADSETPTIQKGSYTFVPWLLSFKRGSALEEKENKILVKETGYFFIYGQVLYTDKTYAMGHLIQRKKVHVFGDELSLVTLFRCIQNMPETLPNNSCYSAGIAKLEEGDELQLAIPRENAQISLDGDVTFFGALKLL

B1: atacicept (Fc fusion)
chain: AMRSCPEEQYWDPLLGTCMSCKTICNHQSQRTCAAFCRSLSCRKEQGKFYDHLLRDCISCASICGQHPKQCAYFCENKLRSEPKSSDKTHTCPPCPAPEAEGAPSVFLFPPKPKDTLMISRTPEVTCVVVDVSHEDPEVKFNWYVDGVEVHNAKTKPREEQYNSTYRVVSVLTVLHQDWLNGKEYKCKVSNKALPSSIEKTISKAKGQPREPQVYTLPPSRDELTKNQVSLTCLVKGFYPSDIAVEWESNGQPENNYKTTPPVLDSDGSFFLYSKLTVDKSRWQQGNVFSCSVMHEALHNHYTQKSLSLSPGK
modifications: Fc-linked homodimer in the drug; one chain is given.
notes: also called TACI-Ig; TACI-Fc5
For the molecule B1, the binding result was “binds”.
